Measurements taken from US20210107998A1 (Boehringer Ingelheim, published 2021).

Columns and labels:
[1] = biological target: T1, Recombinant human BAFF trimer (Boehringer Ingelheim Pharmaceuticals, Inc.) (human, UniProt Q9Y275 134-285, limits assumed); assay: cell-based or functional assay
[2] = biological target: Recombinant cynomolgus BAFF trimer (Boehringer Ingelheim Pharmaceuticals, Inc.) (cynomolgus, UniProt A0A2K5V2X4 134-285); assay: cell-based or functional assay
[3] = biological target: T1, Recombinant human BAFF trimer …; assay: cell-based or functional assay; remark: listed apart in the source
[4] = biological target: Recombinant human BAFF 60mer (Boehringer Ingelheim Pharmaceuticals, Inc.) (human, UniProt Q9Y275 134-285, limits assumed); assay: cell-based or functional assay
[5] = biological target: membrane-bound human BAFF on fixed CHO-K1 cells (human, UniProt Q9Y275 1-285); assay: cell-based or functional assay
Recombinant human IL-23 [6] = biological target: T2, Recombinant human IL-23 (human, UniProt P29460 23-328); assay: cell-based or functional assay
T2 sequence 1: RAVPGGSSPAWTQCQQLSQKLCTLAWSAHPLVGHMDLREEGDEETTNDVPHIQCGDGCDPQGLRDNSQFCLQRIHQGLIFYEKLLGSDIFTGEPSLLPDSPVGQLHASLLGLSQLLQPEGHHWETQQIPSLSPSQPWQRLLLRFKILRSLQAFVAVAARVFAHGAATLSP
T2 sequence 2: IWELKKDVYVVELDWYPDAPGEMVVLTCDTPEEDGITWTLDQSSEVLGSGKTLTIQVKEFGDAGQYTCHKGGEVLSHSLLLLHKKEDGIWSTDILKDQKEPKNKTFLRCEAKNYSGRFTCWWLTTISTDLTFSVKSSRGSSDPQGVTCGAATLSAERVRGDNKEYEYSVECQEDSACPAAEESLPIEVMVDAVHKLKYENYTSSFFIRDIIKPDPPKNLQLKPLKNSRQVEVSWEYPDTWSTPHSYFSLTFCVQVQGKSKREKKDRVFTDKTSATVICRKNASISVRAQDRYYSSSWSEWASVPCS

cynomolgus IL-23 [7] = biological target: T3, cynomolgus IL-23 (cynomolgus, UniProt H6WS56 20-189); assay: cell-based or functional assay
Recombinant human IL-23 [8] = biological target: T2, Recombinant human IL-23; assay: cell-based or functional assay; remark: listed apart in the source
human BAFF [9] = biological target: T4, human BAFF (human, UniProt Q9Y275 134-285, limits assumed); assay: cell-based or functional assay
cynomolgus IL-23 [10] = biological target: T3, cynomolgus IL-23; assay: SPR (ProteOn XPR36), compound captured on goat anti-human IgG Fc, antigen injected
Protocol: (§1) SPR experiments were performed on a ProteOn XPR36 instrument (Bio Rad). A GLM chip was preconditioned with sequential injections of 60 sec of 0.5% SDS, 50 mM NaOH, and 100 mM HCl at a flow rate of 30 μl/min both vertical and horizontal directions.
(§2) The preconditioned GLM chip was then activated by an injection of EDC (76.7 mg/ml) and sulfo-NHS (21.7 mg/ml) mixture with ratio of 1:1 in 6 horizontal channels. Goat-anti-human IgG (GAHA) Fc gamma (Invitrogen) at a concentration of 30 μg/ml in 10 mM, pH 5.0 sodium acetate buffer was immobilized to 8,000 resonance units on the activated GLM chip in 6 horizontal channels. The chip was finally deactivated with 1 M ethanolamine HCl in 6 horizontal channels. The prepared GAHA chip was rotated to vertical direction to capture test compounds, over 5 vertical channels and the last channel was used as a column reference. The captured chip was then rotated again to the horizontal direction for binding. […] The dissociation was allowed for 2 hour. The GAHA surface was regenerated using short pulse injection (18 seconds) of 0.85% phosphoric acid (Bio Rad) at a flow rate of 100 μl/min both horizontal and vertical directions after 10 min association and 2 hr dissociation. The regenerated GAHA was ready for another binding cycle.

human BAFF [11] = biological target: T4, human BAFF; assay: as above
Protocol: as §1, §2

cynomolgus BAFF = biological target: T5, cynomolgus BAFF (cynomolgus, UniProt A0A2K5V2X4 134-285); assay: as above
T5 construct: construct not described
Protocol: as §1, §2

[12] = biological target: T6, Linked human IL-23 (Boehringer Ingelheim Pharmaceuticals, Inc.) (human, UniProt P29460 23-328); assay: as above
T6 sequence 1: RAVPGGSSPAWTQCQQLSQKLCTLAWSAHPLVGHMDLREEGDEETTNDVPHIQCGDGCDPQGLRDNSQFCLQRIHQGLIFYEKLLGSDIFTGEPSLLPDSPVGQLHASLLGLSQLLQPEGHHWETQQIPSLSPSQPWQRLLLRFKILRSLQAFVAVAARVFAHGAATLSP
T6 sequence 2: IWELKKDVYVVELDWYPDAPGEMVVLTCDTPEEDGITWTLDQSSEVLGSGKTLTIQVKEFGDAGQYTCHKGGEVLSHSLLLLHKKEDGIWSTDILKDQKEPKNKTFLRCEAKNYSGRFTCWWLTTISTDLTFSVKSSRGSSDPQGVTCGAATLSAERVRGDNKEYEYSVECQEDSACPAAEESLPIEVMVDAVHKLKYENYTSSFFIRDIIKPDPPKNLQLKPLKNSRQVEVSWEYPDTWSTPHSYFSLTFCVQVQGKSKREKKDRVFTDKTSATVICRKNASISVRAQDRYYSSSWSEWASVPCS
Protocol: as §1, §2

human BAFF [13] = biological target: T4, human BAFF; assay: BLI (Octet RED96, streptavidin tips), compound incubated 48 h at 37 C in whole blood vs kinetic buffer
Protocol: (§3) A whole blood interference assay was developed on an Octet RED96 to detect the effects of non-specific binding or off-target binding for compounds in the presence of whole blood (WB). The compound solutions in whole blood and 1× kinetic running buffer (1×kb) were incubated at a temperature of 37° C. for 48 hours. Kinetic measurements for the incubated compound samples were performed with an Octet RED96 equipped with streptavidin (SA) biosensor tips (ForteBio, Menlo Park, Calif.) at 27° C. The ratio of the on-rates/binding signals in buffer and whole blood were reported. A ratio <2 was considered to show no interference.

Recombinant human IL-23 [14] = biological target: T2, Recombinant human IL-23; assay: as above
Protocol: as §3

- IC50, NFkB luciferase reporter, human BAFFR-CHO cells [1]: 39 pM
- IC90, NFkB luciferase reporter, human BAFFR-CHO cells [1]: 256 pM
- IC50 Geomean, NFkB luciferase reporter, human BAFFR-CHO cells [2]: 132 pM
- IC90 Geomean, NFkB luciferase reporter, human BAFFR-CHO cells [2]: 295 pM
- IC50 Geomean, NFkB luciferase reporter, human TACI-CHO cells [3]: 159 pM
- IC90 Geomean, NFkB luciferase reporter, human TACI-CHO cells [3]: 510 pM
- IC50, NFkB luciferase reporter, human BAFFR-CHO cells [4]: 6 pM
- IC90, NFkB luciferase reporter, human BAFFR-CHO cells [4]: 17 pM
- IC50, NFkB luciferase reporter, human BAFFR-CHO cells stimulated with fixed human BAFF CHO-K1 cells [5]: 125 pM
- IC90, NFkB luciferase reporter, human BAFFR-CHO cells stimulated with fixed human BAFF CHO-K1 cells [5]: 1140 pM
- IC50, STAT3-luciferase reporter in DB lymphoblast B cells (Recombinant human IL-23 [6]): 161 pM
- IC90, STAT3-luciferase reporter in DB lymphoblast B cells (Recombinant human IL-23 [6]): 1100 pM
- IC50, IL-23-induced mouse IL-17 release from mouse splenocytes (cynomolgus IL-23 [7]): 200 pM
- IC90, IL-23-induced mouse IL-17 release from mouse splenocytes (cynomolgus IL-23 [7]): 1480 pM
- IC50, IL-23-induced mouse IL-17 release from mouse splenocytes (Recombinant human IL-23 [8]): 202 pM
- IC90, IL-23-induced mouse IL-17 release from mouse splenocytes (Recombinant human IL-23 [8]): 1360 pM
- IC50, 3H-thymidine incorporation, primary human B cells stimulated with anti-IgM and hBAFF (human BAFF [9]): 33.7 pM
- Kd (cynomolgus IL-23 [10]): < 0.015 nM
- Kd (human BAFF [11]): < 0.015 nM
- Kd (cynomolgus BAFF): < 0.015 nM
- Kd [12]: < 0.015 nM
- Ratio of binding signal in WB/kinetic buffer (human BAFF [13]): 1.2
- Ratio of binding signal in WB/kinetic buffer (Recombinant human IL-23 [14]): 1.5
B1: Compound B (bispecific antibody, human IgG4 S228P, kappa)
chain 1: DIQMTQSPSSLSASVGDRVTITCKASRDVAIAVAWYQQKPGKVPKLLIYWASTRHTGVPSRFSGSGSRTDFTLTISSLQPEDVADYFCHQYSSYPFTFGSGTKLEIKGGGSGGGGQVQLVQSGAEVKKPGASVKVSCKASGYSFSTFFIHWVRQAPGQGLEWIGRIDPNSGATKYNEKFESRVTMTRDTSISTAYMELSRLRSDDTAVYYCARGEDLLIRTDALDYWGQGTSVTVSSLGGGSGASTKGPSVFPLAPCSRSTSESTAALGCLVKDYFPEPVTVSWNSGALTSGVHTFPAVLQSSGLYSLSSVVTVPSSSLGTKTYTCNVDHKPSNTKVDKRVESKYGPPCPPCPAPEFLGGPSVFLFPPKPKDTLYITREPEVTCVVVDVSQEDPEVQFNWYVDGVEVHNAKTKPREEQFNSTYRVVSVLTVLHQDWLNGKEYKCKVSNKGLPSSIEKTISKAKGQPREPQVYTLPPSQEEMTKNQVSLTCLVKGFYPSDIAVEWESNGQPENNYKTTPPVLDSDGSFFLYSRLTVDKSRWQEGNVFSCSVMHEALHNHYTQKSLSLSLG
chain 2: DIQMTQSPSSLSASVGDRVSITCKASQNAGIDVAWFQQKPGKAPKLLIYSKSNRYTGVPSRFSGSGSGTDFTLTISSLQPEDFATYYCLQYRSYPRTFGQGTKLEIKGGGSGGGGQVQLVQSGAEVKKPGSSVKVSCKASGYTFTDQTIHWMRQAPGQGLEWIGYIYPRDDSPKYNENFKGKVTITADKSTSTAYMELSSLRSEDTAVYYCAIPDRSGYAWFIYWGQGTLVTVSSLGGGSGRTVAAPSVFIFPPSDEQLKSGTASVVCLLNNFYPREAKVQWKVDNALQSGNSQESVTEQDSKDSTYSLSSTLTLSKADYEKHKVYACEVTHQGLSSPVTKSFNRGEC
notes: Large chain: IL23A(1) VL - BAFF(7) VH - LGGGSG - IgG4-Pro-YTE constant domain; small chain: BAFF(7) VL - IL23A(1) VH - LGGGSG - CL; Tetravalent format
